Reference: patent US8147817B2, “IL-33 in the treatment and diagnosis of diseases and disorders” (The Brigham and Women's Hospital, Inc., priority 2006, dated 2012)
“Also recorded” adds a separate entry of the source. Read-outs that look alike come from different tables or passages of the source.

Key:
NF-κB = NF-κB nuclear binding activity by EMSA in cardiac fibroblasts; type: cell-based, rat; conditions: angiotensin-II 1 μM, phenylephrine 50 μM, IL-33 10 ng/ml
Description: Electromobility shift assays were performed as described previously (8). Cells were lysed for 10 minutes on ice in a solution containing 10 mM HEPES (pH 7.6), 15 mM KCl, 2 mM MgCl2, 0.1 mM ethylenediamine tetraacetic acid (EDTA), 1 mM dithiothreitol (DTT), 0.5 mM phenylmethylsulphonylfluoride (PMSF), 10 μg/mL leupeptin and 0.2% Nonident P-40. Dishes were gently scraped, and nuclei were collected by centrifugation at 800 g for 30 seconds and then suspended in a solution of 50 mM HEPES, 400 mM KCl, 0.1 mM EDTA, 10% glycerol, 1 mM DTT, 0.5 mM PMSF and 10 μg/mL leupeptin. The mixture was incubated on ice for 30 minutes, and the supernatant was collected after centrifugation for 15 minutes at 400 g. Binding reactions were performed with 5 or 10 μg of nuclear protein in 10 mM Tris, 1 mM DTT, 1 mM EDTA, 5% glycerol, 0.1% Triton X-100, 1 mg poly(dIdC), 5 μg bovine serum albumin (BSA) and approximately 10,000 cpm of −32P-labeled oligonucleotide. The binding reactions for AP-1 activity also contained 5 mM MgCl2. Control reaction mixtures contained a 100-fold excess of unlabeled oligonucleotide and were incubated with nuclear extracts of IL-1β-treated cells. DNA complexes were separated on a 4% nondenaturing polyacrylamide gel in Tris-HCl (6.7 mM), EDTA (1 mM) and ammonium acetate (3.3 mM). The oligonucleotides contained the NF-B binding site (sequence: 5′-AGTTGAGGGGACTTTCCCAGGC-3′ (SEQ ID NO: 15)) and were labeled by standard procedures.
EMSAs were performed as described previously (47). Cells were lysed for 10 minutes on ice in 10 mM HEPES (pH 7.6), 15 mM KCl, 2 mM MgCl2, 0.1 mM EDTA, 1 mM DTT, 0.5 mM PMSF, 10 μg/mL leupeptin, and 0.2% Nonident P-40. Dishes were gently scraped, and nuclei were collected by centrifugation at 800 g for 30 seconds and then suspended in a solution of 50 mM HEPES, 400 mM KCl, 0.1 mM EDTA, 10% glycerol, 1 mM DTT, 0.5 mM PMSF, and 10 μg/mL leupeptin. The mixture was incubated on ice for 30 minutes, and the supernatant was collected after centrifugation for 15 minutes at 400 g. […]

[1] = tested on: rat neonatal cardiomyocytes; test: Cardiomyocyte apoptosis assays (H2O2 stimulus); type: cell-based
Description: For cardiomyocyte apoptosis assays, cardiomyocytes were plated overnight, cultured serum-free for 24 hours, and then subjected to 0.1 mM H2O2 for another 24 hours with or without treatment with purified rat mature IL-33 protein. TUNEL staining (FIG. 19) was performed using a TUNEL staining kit (Roche Diagnostics Corp., Indianapolis, Ind.). For DNA fragmentation experiments (FIGS. 19 and 20), cells were trypsinized, fixed with ethanol, incubated in RNase, stained with propidium iodide, and then subjected to flow cytometry (Cytomics FC 500; Beckman Coulter).
Membranes (PVDF, PerkinElmer) were incubated with primary antibodies overnight (anti-cleaved caspase-3, 1:1000; from Cell Signaling Technology) at 4° C., detected with horseradish peroxidase-conjugated antibodies (Bio-Rad) and enhanced chemiluminescence (FIG. 20).

[2] = tested on: WT and ST2−/− mice after TAC; conditions: for induction of ANP and BNP gene expression after TAC: left ventricle 1 week after operation;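 for all read-outs here: ST2−/− mice and WT littermates, 8-10 weeks old at the time of TAC surgery where applicable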
Description: Targeted ST2 ablated mice and their wild-type littermates were employed for the experiment simultaneously. TAC was produced as described previously (11-13) on 8-10 week old mice. Some mice underwent daily intraperitoneal (i.p.) injection of IL-33 (2 μg suspended in 100 microliters of PBS with 0.2% bovine serum albumin) or vehicle beginning from the day after TAC operation to the day of harvest.
Formalin-fixed, paraffin-embedded sections were prepared as previously described (42). For immunohistochemistry, the first antibodies used were anti-cleaved caspase-3 (Cell Signaling Technology) and anti-mac3 (BD Biosciences, San Jose, Calif.). For TUNEL analysis, the In Situ apoptosis detection kit (Chemicon, Temecula, Calif.) was used along with the manufacturer's protocol with some optimal modifications on the treatment periods.
Targeted ST2−/− mice and their WT littermates were employed for the experiments. TAC was produced as described previously (49, 50) on 8-10 week old mice. All operative procedures were performed by a single operator with over 20 years rodent cardiac surgery experience who was blinded to genotype and the randomized treatment assignment. Following the procedure, each mouse received daily i.p. injection of recombinant rat IL-33 (2 μg) or vehicle from the day after TAC operation until the day of harvest.
Echocardiographic acquisition and analysis were performed by an echocardiographer blinded to treatment group. […] All images were taken at a heart rate greater than 400 beats per minute to minimize effects of anesthesia, using a Sonos-4500 (Philips) and a 15-MHz transducer. Three consecutive cardiac cycles were averaged. Left ventricular mass was calculated by the M-mode method (51). Left ventricular fractional shortening was calculated as (EDD−ESD)/EDD×100%, where EDD is end-diastolic dimension and ESD is end-systolic dimension.
A planimetry image analysis program was used by an investigator blinded to treatment group to quantitate the 30 high power field regions randomly selected in each slice with Hematoxylin-eosin stain (for cross-sectional area) or Sirius-red stain (for fibrotic area). Cross sectional area of cardiomyocytes was measured as described previously (52). Fibrotic area was calculated as (red area/total area)×100%. The scores from all slices were averaged to calculate their respective values.

IκBα = IκBα phosphorylation by Western analysis in cardiac fibroblasts; type: cell-based, rat
Description: Western analyses were performed as described previously (45). Membranes were incubated with primary antibodies overnight (anti-p44/42MAPK diluted 1:500; phospho-p44/42MAPK (Thr202/Tyr204) 1:1000; phospho-JNK (Thr183/Tyr185) 1:500; p38MAPK 1:500; phospho-p38MAPK (Thr180/Tyr182) 1:500; phospho-Akt (Ser473) 1:1000 and phospho-IκBα 1:1000, all from Cell Signaling, anti-mouse ST2L, from R&D 1:1000 and anti-IL-33 as described above, 1:500) at 4° C., detected with horseradish peroxidase-conjugated antibodies and enhanced chemiluminescence.

[3] = ST2−/− mice, 4 weeks after operation
[4] = WT mice surviving 8 weeks after TAC
[5] = WT mice, IL-33 2 μg/day i.p. for 4 weeks

B1: IL-33: recombinant mature rat IL-33, starting with amino acid 109 of the full-length protein, N-terminal His tag (GenBank BC081993) (protein)
chain: SIQGTSLLTESCALSTYNDQSVSFVLENGCYVINVEDCGKNQEKDKVLLRYYESSFPAQSGDGVDGKKLMVNMSPIKDTDIWLNANDKDYSVELQKGDVSPPDQAFFVLHKKSSDFVSFECKNLPGTYIGVKDNQLALVEENDESCNNIMFKLSKM
modifications: left off: small tags and cut ends
With B1 the “NF-κB activation by agent alone” value (NF-κB) was “independently activated NF-κB in both cell types”, the “apoptosis (TUNEL staining, flow cytometry and caspase-3 evaluation together)” value [1] was “can prevent apoptosis in cardiac myocytes” and the “apoptosis by TUNEL staining” value [1] was “can prevent apoptosis in cardiac myocytes; also recorded: can reduce apoptosis in cardiac myocytes”. For the same molecule, the “apoptosis by caspase-3 activation” value [1] was “can prevent apoptosis in cardiac myocytes”, the “apoptosis by flow cytometry after propidium iodide staining” value [1] was “can prevent apoptosis in cardiac myocytes” and the “percentage of TUNEL positive nuclei in myocardium” value ([2]; 4 weeks after operation) was “not changed; also recorded: did not affect TUNEL positivity”. The “Gross Heart/Body Weight after TAC” value ([2]; ST2−/− mice) was “not in ST2−/− mice”, the “NF-κB nuclear binding activity in left ventricular myocardium” value ([2]; ST2−/− mice, 1 week after operation) was “not in ST2−/− mice; also recorded: modest increase in NF-κB binding” and the “hypertrophy by echocardiography after TAC” value [2, 3] was “not in ST2−/− littermates”. The “increased left ventricular dilation and reduced fractional shortening after TAC” value [2, 3] was “not reversed”, the “induction of ANP and BNP gene expression after TAC” value ([2]; ST2−/− mice) was “not in ST2−/− mice” and the “Gross Heart/Body Weight after TAC” value ([2]; WT mice) was “antihypertrophic effect of IL-33 in WT mice”. The “survival after TAC” value ([2]; WT mice) was “significantly improved survival in WT mice after TAC; also recorded: improved pathological changes and survival in WT mice”, the “fractional shortening (echocardiography)” value [2, 4] was “increased fractional shortening” and the “left ventricular wall thickness (echocardiography)” value [2, 4] was “reduced wall thickness”. The “NF-κB nuclear binding activity in left ventricular myocardium after TAC” value ([2]; WT mice, 1 week after operation) was “inhibited NF-κB induction only in WT mice; also recorded: reversed these changes only in WT mice”, the “macrophage infiltration in myocardium after TAC” value ([2]; WT mice, 1 week, co-treatment with IL-33) was “decreased by co-treatment with IL-33; also recorded: reduced macrophage infiltration after TAC only in WT mice” and the “hypertrophy by echocardiography after TAC” value ([2]; WT mice, 4 weeks after operation) was “reduced hypertrophy only in WT mice”. The “cardiac fibrosis (Sirius-red) after TAC” value [2, 5] was “reduced cardiac fibrosis; also recorded: significantly improved these changes in WT mice”, the “cardiomyocyte hypertrophy (cross-sectional area) after TAC” value [2, 5] was “reduced cardiac fibrosis and cardiomyocyte hypertrophy; also recorded: significantly improved these changes in WT mice” and the “induction of ANP and BNP gene expression after TAC” value ([2]; WT mice) was “markedly attenuated induction of both genes in WT; also recorded: effectively reversed the induction of these hypertrophic genes in WT mice with TAC; also recorded: reversed these changes only in WT mice”. The “macrophage infiltration in myocardium, IL-33 alone” value ([2]; WT or ST2−/− mice without TAC, 1 week of treatment) was “did not significantly increase macrophage infiltration; also recorded: not observed; also recorded: did not induce macrophage infiltration”, the “echocardiographic parameters under non-stress conditions” value ([2]; no TAC) was “no significant change” and the “IκBα phosphorylation by agent alone” value (IκBα) was “induced IκBα phosphorylation in both cell types”.
